Values quoted from earlier work, collected in paper PMC3462298.
pKd: −log10 of the molar value.

Tests used:
[1] = molecular target: TAMRA-TRTK-12 (CapZ peptide) (Homo sapiens); test: fluorescence polarization
TRTK-12 = TRTK-12 (UniProt P52907); test: fluorescence competition

- pKd [1]: 5.92
- pKd (TRTK-12): 5.54
Substance: S100B (from UniProt P04631)
